Measured values: publication PMC3435532

Key:
acetyl-FLI1-CTD = assay: EMSA; conditions: acetylated by CBP HAT; 1 ug protein, 500 fmol probe; Non-radioactive EMSA: 1 ug protein, 500 fmol biotinylated dsDNA, binding buffer per Uren et al. 2004 (not given); 6% gel in 0.5x TBE; protein stock 20 mM …
[1] = test system: FLI1-CTD (C-terminal FLI1 domain, non-acetylated); assay: EMSA; conditions: Non-radioactive EMSA: 1 ug protein, 500 fmol biotinylated dsDNA, binding buffer per Uren et al. 2004 (not given); 6% gel in 0.5x TBE; protein stock 20 mM …

ets-binding site oligonucleotide (wild type)
binding signal (fold vs non-acetylated FLI1-CTD) (acetyl-FLI1-CTD): 4 | binding signal (fold (reference, non-acetylated)) [1]: 1
